In the DeepSol protein solubility set:

Experiment: soluble on expression in E. coli; label from the status in PepcDB or PDB records

Sequence | soluble on expression in E. coli
MEQLSIQTDELQDQFSNCSPASVDSSYSSCSSVEDEIEIYTRLVRNEEPLRRDFFREMSKNSSCSSSFDYGEFGPSSSSRKGSKTTDADLDSLFHSLVETSDQVNTVPKPTKTEVESIPEEFEQKPSSSSHRLPSEMNASITHIKSELDPTMQAFQMPHNDLFLATAAPHYNPFALSNDFMPNPLMPSFTSPFYPQHFPVSDSRRGSQGTTSSSNNTGGTPSPHSSSLPTSPPQLQGFLRSFLNPDNLSTPTSFGVPSETALDADKMCAVCNDRAVCLHYGARTCEGCKGFFKRTVQKNSKYTCAGNKTCPIDKRYRSRCQYCRYQKCLEVGMVKEIVRHGSLSGRRGRLSSKTKLARSEDQPSPPLPLLALMGKAIEDHTNMTVVRQFMQPFDETIALRILHGELHATKKLLMAMPQISEIQPADFQILLSRSFFAIMAIRVANRCGNSTDTIMFESGELFSLNAFPACFQQIIRFMVDKARTFSSLVDWEPQAFAAFIALQFLAGNTEHNVLGLTNKPLVDQVQSTIINALKDHCSGSQNKLAKIVRLTQEFDVFHALGLQALDILYPSHQLPEEFMFLINLTRAPLRSTDAPPACGSPVAPSGSSLFNFQMGPAAF | not soluble
MNLDTPLADGLERAKRFEQGLQQVVLGQERPIRLLTLAVFARGHALLEGGVGVGKTTLLRAVARGIGGDYERIEGTIDLMPNDLVYYTYLDEQGRPGVAPGPLLKHGEQLSIFFFNEINRARPQVHSLLLRVMAERSVSAFNREYRFPYLQVFADRNRVEKEETFELPAAARDRFMLEIAIEPPADPAHIDQILFDPRFYDPDRLVASAPADTLSFRELNGIAEALQGGIHVSARLRSYVQDLWRATRRPEDFGIALHEADSGDMIEAGSSPRGMSYLVRLARVQAWLSGRDRVEPEDVQYVFAPAVGHRIFLKPVYEYRRAELIPELVGKLIRRIAAPLEHHHHHH | not soluble
MKHMEKFANHFGYNRMFAKDQLTLGVHIPIENYQFHAPTMEKQVELVQKAEQYGFTGVWLRDVLLQDPDFGDPATGQIYDMMIYLTYLASKTEKIAFGTSATVLSLRHPLRVAKEIATLDQLFPERIMLGVSSGDRRADFKALGVSHETRGEKFREAFAYLEEILYKNFPSIQSTLGEVHGANLVPKPSKRVPTFITGFSQQNMEWFAEHGDGWMYYPRSPVHQAGAIGQWRELVEDYHPDVFKPFIQPMHLDLSEDPNERPTPIRLGYRTGRKALIELLDIYKSIGVNHLFLALFDGQRPADEVLDELGEEVLPHFPAL | soluble
MSLTNLPEDRTGEEIRDAIKIDGEAVRGHLDELVRSTVEETLNQMLDAEADQICKAKRYERSPDRVDSRAGSYSRKLQTKAGEVSLKVPQLRSLPLETQIIERYKRRESSVEEALVEMYLAGVSVRRVEDITEALWGTRVSSSTVSELNQKIYERIDVWRNRPLEGEHPYVMLDGIWLKRSWGGEVKNIAVLVAVGVRSDGHREILSVAEGTKEDSESWRTFLRHLKERGLQGVRLITSDKCLGLVEALGEFFPEAAWQRCIVHFYRNVLKDVPRSKSRDVAAMLKAVHAQEDRTAATEKAEQVAEKLASLRLGNAAKCFRAGVQETLAYMNFPREHWTRLRSNNMLERIMKEIRRRTRVVGAFPDGQSALMLVAARLRHIAGTHWGTRRYLDMDRLHEPEEREDHEGHHHHHH | soluble
MTQPLRQYREKRDFRATAEPAGAARRPRAAARASEGLSFVIQRHQARRLHYDFRLEIDGVLVSWAVPKGPSRDPSVKRLAVHVEDHPLEYGGFSGDIPKGQYGAGHVDIWDSGVWIPRGDPRQGLRRGKLHFALRGRRLAGDWVLVRMSGEQDQWLLRKEDDEALEHHHHHH | soluble
EFPEITEEMEKEIKNVFRNGNQDEVLSEAFRLTITRKDIQTLNHLNWLNDEIINFYMNMLMERSKEKGLPSVHAFNTFFFTKLKTAGYQAVKRWTKKVDVFSVDILLVPIHLGVHWCLAVVDFRKKNITYYDSMGGINNEACRILLQYLKQESIDKKRKEFDTNGWQLFSKKSQEIPQQMNGSDCGMFACKYADCITKDRPINFTQQHMPYFRKRMVWEILHRKLL | soluble
MGSDKIHHHHHHMITEKVLSYKSPLYGRRTGSLKLRPMNFFTLREFFPSCSWEELVEIYGMTDGIPFYIIQVKPPFWELLEEELKNPISFFKDEVDFLLRYEFSEVTTYKRILEAIALGKTTLKEIKDFTGLRNSDITPYLRNLIEADLIVREVPITEKKTSKKGRYYVLDNFLAFWFRFIYPNLSRIEEGIFNVDEIKGEYPRYLGWVFEKIARQFLIELNKINKLPFKFEKIGRWWYKEEEIDIVALNEREKKGLLVEVKWKTLKEREAREILEVLNKKSKLLGLEGWEKYYGLIAREIKRKEPLIEDGYLVWDLEDFEEIVKQKSREGL | not soluble
MGHHHHHHSHMHISGVFATKDAVAVWNGRQVAIFELSGAAIRSAGTFLCETPVLAMHEENVYTVESNRVQVRTWQGTVKQLLLFSETEGNPCFLDICGNFLVVGTDLAHFKSFDLSRREAKAHCSCRSLAELVPGVGGIASLRCSSSGSTISILPSKADNSPDSKICFYDVEMDTVTVFDFKTGQAWCLALVEVGPKGPSARDASAETRVWETPHALHLPAPPSWRGPGSVGKGSCER | not soluble
MSLIELRDKTILIDGRPRLVLSGEVHYFRLRREDWQDRLDKLKAAGCNTVASYIPWLCHETVEGRIDLDGRSRPELDLGAFIDLCRANGLWFIARPGPFVMAELKNEGLPYWLYEKHPEIVPVGWDGKPATTHTVDYLAPGFLDAARRWYDAVMAVITPRLQPGGGNVIALQLDNEIGMLSWLSNCPDLTENVLADFAAWLKVRHRPESLRKRYPFDPDEPEARRAGIRSPAESYALALLRDLGHYMRDRFARYVATLRSWAETAGIRGIPFVVNIHGTGGGRALSFPIGISQLYPSYTQDFGYLSGSDFYLGNLTFDNFQDLYLCNAFMEAVHRPEQPLASMEFECGDGNYGNTYGNRLDPSAADFKARMCLAQGARLLNYYLFTGGHNYRLDPPPPDGDGRIAFTGERHGFAAPVDPDGRLNYSYPRLANLTRTVAAVADKLAAMWEEHDRVAFGFIPDYFMTESRHPASAAMATIVRNLEANRGPSAWETMARAMLLGGYRFGAVDLQNRPLDVKTTPVLALGSARYMDTAVQRKLADWLSAGGGLLLYGEVPLYGMEGEPCTLLAEALGTEISGFRQASERYFLALAADGWARPRPEVRSHFAQTFAAPLAEALLRVCDTGEICGFETAVGKGRAVVIGTAYPCDIALFRTALERLGAVAALRHDCENHGIFMTSTANAAGERFIHLLNLDGFDKRFHLYEHGRPLFDGHEIELRARDGVMLPLAMREGHHHHHH | not soluble
MGHHHHHHSHLQHETQELASKRVDIQNKRFYLDVKQNAKGRFLKIAEVGAGGNKSRLTLSMSVAVEFRDYLGDFIEHYAQLGPSQPPDLAQAQDEPRRALKSEFLVRENRKYYMDLKENQRGRFLRIRQTVNRGPGLGSTQGQTIALPAQGLIEFRDALAKLIDDYGVEEEPAELPEGTSLTVDNKRFFFDVGSNKYGVFMRVSEVKPTYRNSITVPYKVWAKFGHTFCKYSEEMKKIQEK | soluble
PAAGPSRVRQNFHPDSEAAINRQINLELYASYVYLSMAYYFSRDDVALNNFSRYFLHQSREETEHAEKLMRLQNQRGGRIRLQDIKKPEQDDWESGLHAMECALLLEKNVNQSLLELHALASDKGDPHLCDFLETYYLNEQVKSIKELGDHVHNLVKMGAPDAGLAEYLFDTHTLGNENKQN | soluble
MLFLDSQFVYGAGAQLFNHFCYFFGTQQKFPPFLSIDENQYIIFIATEQFIREIKLLIALLLNENTAKYFQKALLCLKERKLVKIAKVGNVIEFKNGLTGVVEKVNENSVIVDVTIMDNYRDLELDSLTVVNHKNYKIIRDSYLEHHHHHH | soluble
MSLKDVSLSSFDAHDLDLDKFPEVVRDRLTQFLDAQELTIADIGAPVTDAVAHLRSFVLNGGKRIRPLYAWAGFLAAQGHKNSSEKLESVLDAAASLEFIQACALIHDDIIDSSDTRRGAPTVHRAVEADHRANNFEGDPEHFGVSVSILAGDMALVWAEDMLQDSGLSAEALARTRDAWRGMRTEVIGGQLLDIYLESHANESVELADSVNRFKTAAYTIARPLHLGASIAGGSPQLIDALLHYGHDIGIAFQLRDDLLGVFGDPAITGKPAGDDIREGKRTVLLALALQRADKQSPEAATAIRAGVGKVTSPEDIAVITEHIRATGAEEEVEQRISQLTESGLAHLDDVDIPDEVRAQLRALAIRSTERREGHHHHHH | soluble
